Consider 1 molecule from patent CN110982824A.

Assay [1] concerns the target PD-L1 (UniProt Q9NZQ7). The experiment in a line: competition ELISA, PD-1 at 50 μg/ml, BP at 200 μg/ml. Background: In an ELISA, binding on a coated surface is turned into a signal by an enzyme label.
Assay [2] concerns the target PD-L1 (UniProt Q9NZQ7). Kind of assay: ELISA, PD-L1 coated, BP at 200 μg/ml, reference PD-1 binding PD-L1.

UniProt Q9NZQ7, sequence (Q9NZQ7 19-238 limits assumed): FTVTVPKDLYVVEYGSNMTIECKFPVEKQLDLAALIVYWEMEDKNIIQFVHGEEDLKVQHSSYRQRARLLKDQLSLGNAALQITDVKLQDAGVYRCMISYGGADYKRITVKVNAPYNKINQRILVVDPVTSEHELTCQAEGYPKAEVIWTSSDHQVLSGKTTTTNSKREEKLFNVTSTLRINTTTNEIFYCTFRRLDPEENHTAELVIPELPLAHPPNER

B1: 拮抗PD-1的抗体类似物BP蛋白 (VHH, not shown: small tags and cut ends)
VHH: DVQLQASGGGSVQAGGSLRLSCAASGYTIGTYAISWFRQAPGKEREGVAGIIPIFGKAHTYYADSVKGRFTISQDNAKNTVYLLMNSLEPEDTAIYYCAAKFHFVSGSPFGMDSWGQGTQVTVSS
With B1, the 抑制率 (inhibition of PD-1 binding to PD-L1) in the assay with PD-L1 [1] is 25%. Also, the 结合强度 (relative to PD-1 binding PD-L1) in the assay with PD-L1 [2] was found to be 115%.
